Consider three molecules from article PMC8867190, “Ultrasensitive DNA‐Biomacromolecule Sensor for the Detection Application of Clinical Cancer Samples”.

In data set [1] the target is Nucleolin (NCL) (UniProt P19338 2-710). Description: electrochemical strand displacement (SWV); 100 nM NCL; signal gain 357.19%; 10 mM phosphate buffer, 1 M NaCl, pH 7.4, room temperature; 30 nM aptamer/signal duplex (prepared in 20 mM Tris, 50 mM MgCl2, pH 8.0, diluted 60 uL into 1940 uL PBS). Conditions: protein: commercial; assayed prehybridized with NCL-SP S10 (3'-MB), displaced by target; printed S10 only partly complementary.

For data set [2], the target named is Luteinizing hormone (LH) (UniProt P01215;P01229 25-116;21-141). Description: electrochemical strand displacement (SWV); 10 pM-10 uM LH; detection limit 10 pM (not a Kd); displaces signal probe; 10 mM phosphate buffer, 1 M NaCl, pH 7.4, room temperature; 30 nM aptamer/signal duplex (prepared in 20 mM Tris, 50 mM MgCl2, pH 8.0, diluted 60 uL into 1940 uL PBS). The following applies: protein: commercial; copies: 1;1; assayed prehybridized 1:1 with signal probe S3 (3'-MB), complementary to aptamer nt 1-15; S3 is displaced by target; G-quadruplex predicted.

Data set [3] concerns the target Neutrophil gelatinase-associated lipocalin (NGAL) (UniProt P80188 21-198). Kind of data set: electrochemical strand displacement (SWV); 100 nM NGAL; signal gain 200.85%; 10 mM phosphate buffer, 1 M NaCl, pH 7.4, room temperature; 30 nM aptamer/signal duplex (prepared in 20 mM Tris, 50 mM MgCl2, pH 8.0, diluted 60 uL into 1940 uL PBS). Conditions: protein: commercial; assayed prehybridized with NGAL-SP S7 (3'-MB), displaced by target; printed S7 only partly complementary.

Chain of Neutrophil gelatinase-associated lipocalin (NGAL) (P80188 21-198): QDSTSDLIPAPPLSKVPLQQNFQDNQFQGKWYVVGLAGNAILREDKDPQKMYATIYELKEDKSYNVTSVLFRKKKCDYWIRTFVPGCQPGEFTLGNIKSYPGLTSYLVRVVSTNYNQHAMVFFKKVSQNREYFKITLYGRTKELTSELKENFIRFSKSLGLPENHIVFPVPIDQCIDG
Chain of Nucleolin (NCL) (P19338 2-710): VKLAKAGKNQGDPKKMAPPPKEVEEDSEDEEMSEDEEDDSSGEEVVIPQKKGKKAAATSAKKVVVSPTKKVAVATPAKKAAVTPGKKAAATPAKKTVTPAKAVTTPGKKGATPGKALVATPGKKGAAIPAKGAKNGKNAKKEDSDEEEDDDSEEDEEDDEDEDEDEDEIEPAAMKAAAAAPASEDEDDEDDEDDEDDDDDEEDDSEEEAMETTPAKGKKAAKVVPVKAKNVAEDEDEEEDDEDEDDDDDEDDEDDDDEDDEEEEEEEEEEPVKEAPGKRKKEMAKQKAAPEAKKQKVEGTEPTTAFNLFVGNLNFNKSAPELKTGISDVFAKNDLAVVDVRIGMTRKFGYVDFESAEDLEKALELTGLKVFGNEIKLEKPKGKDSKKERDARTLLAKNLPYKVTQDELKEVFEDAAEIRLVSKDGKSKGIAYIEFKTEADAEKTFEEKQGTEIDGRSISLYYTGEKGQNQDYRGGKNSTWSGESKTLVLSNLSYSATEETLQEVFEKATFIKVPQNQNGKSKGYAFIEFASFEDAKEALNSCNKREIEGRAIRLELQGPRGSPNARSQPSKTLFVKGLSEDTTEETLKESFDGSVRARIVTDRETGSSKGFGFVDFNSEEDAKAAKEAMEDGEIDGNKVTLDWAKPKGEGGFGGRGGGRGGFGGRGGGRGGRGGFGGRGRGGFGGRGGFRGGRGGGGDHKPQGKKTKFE
Chain of Luteinizing hormone (LH) (P01215 25-116, chain 1 of 2): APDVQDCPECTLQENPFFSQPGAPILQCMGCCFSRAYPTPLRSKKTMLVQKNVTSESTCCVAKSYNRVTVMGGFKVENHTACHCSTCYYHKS
Chain of Luteinizing hormone (LH) (P01229 21-141, chain 2 of 2): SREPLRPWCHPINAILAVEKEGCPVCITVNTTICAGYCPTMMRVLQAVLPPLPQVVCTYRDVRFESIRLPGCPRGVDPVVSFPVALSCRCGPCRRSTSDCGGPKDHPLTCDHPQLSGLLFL

B1: Nucleolin aptamer (ssDNA)
DNA: GGTGGTGGTGGTTGTGGTGGTGGTGGTTTTTT
On to B1, for which the binding result in data set [1] is “binds”.

B2: LH aptamer (structured_DNA)
DNA: TATGGTATGCTGTGTGGTATGGGGTGGCGTGCTCT
As for B2, the binding result in data set [2] is reported as “binds”.

B3: NGAL aptamer (ssDNA)
DNA: AGCAGCACAGAGGTCAGATGGCGCTGGATAGCAAGATCACGTTATCATCGTAAACCCTATGCGTGCTACCGTGAA
As for B3, in data set [3], the binding result is “binds”.
